Shikimate production data for 2 substances are collected here from patent US20230295638.

The target of series [1] is constitutive Corelet construct PPID::FUSn::GFP::FTH1, where PPID=PDZ (UniProt P02794).
Series [2] addresses constitutive Corelet construct PPID::FUSn::GFP::FTH1, where PPID=PTB (UniProt P02794).

As to “TAL1 C-terminally tagged with PDZ ligand”, the shikimate production entry in series [1] is “The case when all four enzymes are recruited through expression with PTB/PDZ tags (+) shows enhanced shikimate production compared to when certain enzymes are removed from the cluster through expression without fusion to PTB/PDZ tag (-)”.

Take “TKL1 C-terminally tagged with PTB ligand”: in series [2], the shikimate production entry is “The case when all four enzymes are recruited through expression with PTB/PDZ tags (+) shows enhanced shikimate production compared to when certain enzymes are removed from the cluster through expression without fusion to PTB/PDZ tag (-)”.
